Source: the supplement of paper PMC10724198
± gives the standard deviation of the averaged measurements.

tested on: Saccharomyces cerevisiae; assay: protein stability index of tFT-peptide fusion (C-terminal peptide) (PSI (0-1 scale)); higher = more stable (slower turnover); conditions: genetic background: wild type; temperature: 30 C
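Note: PSI is a weighted mean of sequencing reads over stability bins, variants kept only with over 10 reads, mCherry proximal and sfGFP distal, peptide attached via GGGS linker.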

Compared with PALPPASPRPAL, PALPPPGSPPPS is lower in protein stability index: 0.776 ± 0.072 for the first, 0.616 ± 0.01 for the second.

Going from PANRGPPTPFSP to PAPAPPPSPLPP, the protein stability index falls from 0.729 ± 0.024 to 0.655 ± 0.028.

PAPGLTPAGRAP and PAPPFPIRPPAA are within error of each other in protein stability index: 0.777 ± 0.14 for the first, 0.653 ± 0.015 for the second.

PAPPPLPSAAPP and PAPPPPARPALP are the same in protein stability index: 0.706 ± 0.14 for the first, 0.706 ± 0.027 for the second.

Compared with PAPPPPFPPSPP, PAPPPVRPRSLP is lower in protein stability index: 0.695 ± 0.039 for the first, 0.627 ± 0.021 for the second.

First: PAPRWFSHPSYP
Second: PAPSASPPLLRC
The protein stability index of the first is lower: 0.676 ± 0.01 for the first, 0.722 ± 0.03 for the second.

PAPSPLPPPPSL and PASCARVFVGMS are within error of each other in protein stability index: 0.6978 ± 0.0057 for the first, 0.67 ± 0.037 for the second.

Going from PASDPPHRDPPH to PCASGSPRFCQR, the protein stability index rises from 0.658 ± 0.019 to 0.707 ± 0.025.

Compared with PCLSFPPALRAA, PCPIGGRPCRVG is higher in protein stability index: 0.641 ± 0.012 for the first, 0.7275 ± 0.0037 for the second.

PCPPNSPPLSPT and PCPPPRSPPLAP are within error of each other in protein stability index: 0.71 ± 0.043 for the first, 0.74539 ± 0.00027 for the second.

PCRLTRSPRTLP and PCSLPLVLSFPH are within error of each other in protein stability index: 0.689 ± 0.1 for the first, 0.6846 ± 0.0037 for the second.

PCSPLSLPPPFP and PCSVPHSGSAPA are within error of each other in protein stability index: 0.722 ± 0.0073 for the first, 0.712 ± 0.044 for the second.

Compared with PDEFIAKRWNST, PDVNEATPKLWC is higher in protein stability index: 0.62 ± 0.012 for the first, 0.694 ± 0.027 for the second.

Compared with PDYPLSCLLFFP, PELCLSSPSSLS is higher in protein stability index: 0.643 ± 0.011 for the first, 0.686 ± 0.018 for the second.

Going from PESAWLSPRCVF to PFAFLSPLIPPP, the protein stability index rises from 0.6696 ± 0.0039 to 0.749 ± 0.013.

Compared with PFFFLWSLYFFL, PFFSFGGLRFLL is higher in protein stability index: 0.5096 ± 0.0038 for the first, 0.6621 ± 0.0053 for the second.

PFGSYIRHRENT and PFHSLSATFPPR are within error of each other in protein stability index: 0.759 ± 0.14 for the first, 0.768 ± 0.086 for the second.

Going from PFLFPLLSPFSV to PFLHPTRLARSN, the protein stability index rises from 0.681 ± 0.019 to 0.712 ± 0.011.

First: PFLSPPPPSTPP
Second: PFPHLYTPRLLF
The protein stability index of the first is higher: 0.704 ± 0.01 for the first, 0.571 ± 0.014 for the second.

PFPLPPLCPPAA and PFPPLRSLPRPP are within error of each other in protein stability index: 0.722 ± 0.064 for the first, 0.737 ± 0.099 for the second.

PFPPPPPPPMPT and PFPPPSPPPPSS are within error of each other in protein stability index: 0.691 ± 0.05 for the first, 0.6785 ± 0.003 for the second.

PFPPRLPSPATP and PFPPSLPSLPLL are within error of each other in protein stability index: 0.6914 ± 0.0037 for the first, 0.698 ± 0.017 for the second.

PFPPYSLPLPSP and PFPSPSRHSLFP are within error of each other in protein stability index: 0.759 ± 0.016 for the first, 0.723 ± 0.084 for the second.

Going from PFRFLFGISLFF to PFRLSPPLPPAP, the protein stability index rises from 0.559 ± 0.015 to 0.743 ± 0.084.

Compared with PFRSPYQRPLHY, PFSIPPPPPRYP is higher in protein stability index: 0.689 ± 0.039 for the first, 0.766 ± 0.0092 for the second.

First: PFSPDVSSVVFL
Second: PFSPPLTPTFFP
The protein stability index of the first is lower: 0.667 ± 0.032 for the first, 0.7052 ± 0.0057 for the second.

First: PFSPPPGPPPPP
Second: PFTSPAGSFPPP
The protein stability index of the first is lower: 0.6806 ± 0.0034 for the first, 0.762 ± 0.068 for the second.

Compared with PFWTPASPPSFY, PGAFDLPHSQAV is lower in protein stability index: 0.748 ± 0.014 for the first, 0.552 ± 0.059 for the second.

PGCSCPSTRRTT and PGGCQDPWAALC are within error of each other in protein stability index: 0.655 ± 0.077 for the first, 0.714 ± 0.077 for the second.

PGHPGSCPRRNG and PGPDMSSVSSDY are within error of each other in protein stability index: 0.645 ± 0.046 for the first, 0.6 ± 0.11 for the second.

PGPLISAVPLPF and PGPNPASCIPTW are within error of each other in protein stability index: 0.733 ± 0.064 for the first, 0.6835 ± 0.0021 for the second.

PGPWLGLTPCRT and PGRAARLLPRPL are within error of each other in protein stability index: 0.813 ± 0.14 for the first, 0.712 ± 0.048 for the second.

PGRLTTERLSFQ and PGRMEKKALKRP are within error of each other in protein stability index: 0.7 ± 0.043 for the first, 0.677 ± 0.014 for the second.

PGRQSPPAPLYR and PGVRGVKPVGVS are within error of each other in protein stability index: 0.678 ± 0.0098 for the first, 0.675 ± 0.092 for the second.

Compared with PGVRPPSLVPPL, PHALSSFLSLFL is higher in protein stability index: 0.65 ± 0.11 for the first, 0.791 ± 0.017 for the second.

PHAPHPPHPAPC and PHARHPPDHRPF are within error of each other in protein stability index: 0.653 ± 0.01 for the first, 0.678 ± 0.059 for the second.

PHLESVRYGLFS and PHLFDPLVPASF are within error of each other in protein stability index: 0.709 ± 0.02 for the first, 0.682 ± 0.048 for the second.

PHLHTPDDARPL and PHLPYCSPSFPV are within error of each other in protein stability index: 0.698 ± 0.092 for the first, 0.642 ± 0.059 for the second.

PHLTPRRQHRLR and PHPLLPGRSSPP are within error of each other in protein stability index: 0.667 ± 0.049 for the first, 0.677 ± 0.061 for the second.

PHPLPHASPAPC and PHPLPPPTPSVP are within error of each other in protein stability index: 0.6677 ± 0.0019 for the first, 0.677 ± 0.018 for the second.

First: PHPPHLRPLCPR
Second: PHPPHRLPYPRL
The protein stability index of the first is lower: 0.719 ± 0.029 for the first, 0.808 ± 0.054 for the second.

Compared with PHPPPERSTNLC, PHPPPHPLFSRF is higher in protein stability index: 0.694 ± 0.036 for the first, 0.758 ± 0.02 for the second.

PHPPPPSPPLPT and PHPPSDLLPYRP are within error of each other in protein stability index: 0.709 ± 0.041 for the first, 0.691 ± 0.022 for the second.

PHPRPPLPLSLP and PHRACSSRPLGP are within error of each other in protein stability index: 0.697 ± 0.013 for the first, 0.718 ± 0.049 for the second.

Compared with PHRPPPHHSLPP, PHRPTALALHWF is lower in protein stability index: 0.6976 ± 0.0013 for the first, 0.66 ± 0.0067 for the second.

PHTHHAPNTRNQ and PIALPLPPPTPS are within error of each other in protein stability index: 0.6797 ± 0.0036 for the first, 0.757 ± 0.08 for the second.

Going from PIERISNSGKRP to PIGVFFVSGCVG, the protein stability index falls from 0.6928 ± 0.0017 to 0.606 ± 0.014.

PIPSPYYPPTFC and PISGFLRPPPPF are within error of each other in protein stability index: 0.73 ± 0.11 for the first, 0.663 ± 0.012 for the second.

PISPLPPPRFLP and PKKNIKSKNIIL are within error of each other in protein stability index: 0.677 ± 0.04 for the first, 0.714 ± 0.034 for the second.

PKSRSVTTSIPG and PKVDLSVVRSGY are within error of each other in protein stability index: 0.691 ± 0.042 for the first, 0.638 ± 0.016 for the second.

PLAPLPMSPHLA and PLAPPLRPLVSP are within error of each other in protein stability index: 0.572 ± 0.016 for the first, 0.66 ± 0.076 for the second.

PLASLPALHFSL and PLASPRIYAQHL are within error of each other in protein stability index: 0.678 ± 0.025 for the first, 0.697 ± 0.016 for the second.

PLAWSAPCRPHT and PLCAFLFLSSPP are within error of each other in protein stability index: 0.73 ± 0.029 for the first, 0.757 ± 0.031 for the second.

First: PLFPPPPLRSWP
Second: PLGCGLTRCVAT
The protein stability index of the first is higher: 0.766 ± 0.089 for the first, 0.599 ± 0.0067 for the second.

PLGQGRRRPPDA and PLHDGRFANDSF are within error of each other in protein stability index: 0.732 ± 0.1 for the first, 0.674 ± 0.043 for the second.

First: PLHPPCLPPSRL
Second: PLHPPSLPPPPT
The protein stability index of the first is higher: 0.814 ± 0.043 for the first, 0.732 ± 0.032 for the second.

First: PLHPSFPPPPAP
Second: PLHRARAPHSYP
The protein stability index of the first is lower: 0.5147 ± 0.0044 for the first, 0.7167 ± 0.006 for the second.

PLKPPTPDPPHR and PLLLSPPPLYTF are within error of each other in protein stability index: 0.666 ± 0.027 for the first, 0.632 ± 0.028 for the second.

PLLPATFLPATP and PLLPPLPATSHT are within error of each other in protein stability index: 0.74 ± 0.021 for the first, 0.786 ± 0.14 for the second.

First: PLLPPLPPRPPP
Second: PLLPPPPPPPPT
The protein stability index of the first is lower: 0.633 ± 0.03 for the first, 0.718 ± 0.025 for the second.

PLLPPSSVPTPS and PLLSPPSPLPPF are within error of each other in protein stability index: 0.784 ± 0.1 for the first, 0.724 ± 0.022 for the second.

PLLSPPSPPPPT and PLPAAPPILFSL are within error of each other in protein stability index: 0.713 ± 0.017 for the first, 0.731 ± 0.038 for the second.

PLPAPPPPTLPD and PLPARSPPPTSV are within error of each other in protein stability index: 0.715 ± 0.065 for the first, 0.652 ± 0.026 for the second.

PLPFPLLPPPPH and PLPFPPPLPPPT are within error of each other in protein stability index: 0.705 ± 0.013 for the first, 0.681 ± 0.043 for the second.

PLPFPSSPPPPP and PLPFPSTPPPPD are within error of each other in protein stability index: 0.6723 ± 0.0018 for the first, 0.691 ± 0.031 for the second.

PLPFRSSPLLVL and PLPGLLHCPTSP are within error of each other in protein stability index: 0.614 ± 0.05 for the first, 0.717 ± 0.12 for the second.

First: PLPLAPHPDYSL
Second: PLPLFGPRLSPP
The protein stability index of the first is lower: 0.687 ± 0.052 for the first, 0.875 ± 0.065 for the second.

PLPLHPSALPSL and PLPLPLLPPPLP are within error of each other in protein stability index: 0.676 ± 0.05 for the first, 0.764 ± 0.11 for the second.

First: PLPLPPPSLSPL
Second: PLPLPVSPRPPP
The protein stability index of the first is higher: 0.73279 ± 8.7e-05 for the first, 0.6807 ± 0.0063 for the second.

Going from PLPLPYCQASPV to PLPLSPPLLPAP, the protein stability index falls from 0.658 ± 0.008 to 0.6 ± 0.0082.

Compared with PLPPCCLPPSAF, PLPPCPPTPCPS is lower in protein stability index: 0.6857 ± 0.0061 for the first, 0.648 ± 0.013 for the second.

First: PLPPHVPPSLPP
Second: PLPPPDPPAPSL
The protein stability index of the first is lower: 0.679 ± 0.0083 for the first, 0.716 ± 0.0085 for the second.

PLPPPGPLPSPP and PLPPPLPPTLPL are within error of each other in protein stability index: 0.736 ± 0.043 for the first, 0.72 ± 0.018 for the second.

PLPPPPALLFPP and PLPPPPPALPLP are within error of each other in protein stability index: 0.733 ± 0.054 for the first, 0.683 ± 0.037 for the second.

PLPPPPPDILTP and PLPPPPPTSLPP are within error of each other in protein stability index: 0.743 ± 0.013 for the first, 0.705 ± 0.043 for the second.

Compared with PLPPRPHPLLSP, PLPPSPPPPPSP is higher in protein stability index: 0.6526 ± 0.0026 for the first, 0.677 ± 0.019 for the second.

Going from PLPQNIPFPLPL to PLPRLSYRPPTL, the protein stability index falls from 0.735 ± 0.019 to 0.663 ± 0.028.

PLPRPLPPRVPF and PLPRPPSPLPAL are within error of each other in protein stability index: 0.712 ± 0.013 for the first, 0.689 ± 0.039 for the second.

PLPSPPVPPPPP and PLPTGTQPTRHR are within error of each other in protein stability index: 0.6796 ± 0.0043 for the first, 0.669 ± 0.0079 for the second.

PLPTHISPPLPS and PLRLPPPRSPPL are the same in protein stability index: 0.6893 ± 0.006 for the first, 0.689 ± 0.032 for the second.
